This note sets out measurements from PMC3756526 (2013).

The target in test [1] is ASB9–EloBC ternary complex (ankyrin-repeat and SOCS-box protein 9, Elongin B, Elongin C) (human) (UniProt Q96DX5). Put plainly: native MS; nanoESI–MS of the reconstituted ASB9–EloBC–Cul5NTD sample at three concentrations; 500 mM ammonium acetate, pH 7.0.
For test [2] the target is unchanged. Put plainly: ITC; 298 K; Cullin NTD (450 μM) titrated into ASB9–EloBC (60 μM) in the cell; 50 mM HEPES, 100 mM NaCl, pH 7.5, 1 mM TCEP; one-set-of-sites model. Background: Isothermal titration calorimetry measures the heat released or taken up as one component is titrated into another.
The target is the same in test [3]. Put plainly: ITC; 303 K; Cul5NTD (450 μM) titrated into ASB9–EloBC (60 μM) in the cell; 50 mM HEPES, 100 mM NaCl, pH 7.5, 1 mM TCEP; one-set-of-sites model.
Test [4] shares this target. Put plainly: ITC; 288 K; Cul5NTD (450 μM) titrated into ASB9–EloBC (60 μM) in the cell; 50 mM HEPES, 100 mM NaCl, pH 7.5, 1 mM TCEP; one-set-of-sites model.
For test [5] the target is unchanged. Put plainly: differential scanning fluorimetry; 2 μM ASB9–EloBC with Cul5NTD at 8, 4, 2, 1, 0.5 and 0.25 μM; Sypro Orange; 50 mM HEPES, 100 mM NaCl, pH 7.5, 1 mM TCEP; 37 to 95 °C at 1 °C/min.
The target in test [6] is T1, Cullin 5 N-terminal domain (residues 1–386, V341R, L345D) (human, UniProt Q93034 1-386, V341R | L345D). Put plainly: ITC; 293 K.
The target of test [7] is T1, Cullin 5 N-terminal domain (residues …). Put plainly: ITC; 288 K.
Test [8] shares this target. Put plainly: ITC; 303 K.

On to “Cullin 5 N-terminal domain (residues 1–386, V341R, L345D) (from UniProt Q93034 1-386) (domain or fragment)”, for which the stoichiometry N in test [1] and in test [2] was 1 in each case. Moreover, the dissociation constant Kd (in general, a measure of binding affinity in units of concentration) in test [2] stood at 220 nM. Moreover, the dH is -6 kcal/mol in test [2], -8.3 kcal/mol in test [3] and -3 kcal/mol in test [4]. The ΔTm (commonly the shift of the melting midpoint relative to a reference) in test [5] was found to be 4.6 °C.

B1: ASB9–EloBC ternary complex (ankyrin-repeat and SOCS-box protein 9, Elongin B, Elongin C) (complex)
chain 1: SDWSPMHEAAIHGHQLSLRNLISQGWAVNIITADHVSPLHEACLGGHLSCVKILLKHGAQVNGVTADWHTPLFNACVSGSWDCVNLLLQHGASVQPESDLASPIHEAARRGHVECVNSLIAYGGNIDHKISHLGTPLYLACENQQRACVKKLLESGADVNQGKGQDSPLHAVARTASEELACLLMDFGADTQAKNAEGKRPVELVPPESPLAQLFLEREGPPSLMQLCRLRIRKCFGIQQHHKITKLVLPEDLKQFLLHL
chain 2: MDVFLMIRRHKTTIFTDAKESSTVFELKRIVEGILKRPPDEQRLYKDDQLLDDGKTLGECGFTSQTARPQAPATVGLAFRADDTFEALCIEPFSSPPELPDVMKPQDSGSSANEQAVQ
chain 3: MYVKLISSDGHEFIVKREHALTSGTIKAMLSGPGQFAENETNEVNFREIPSHVLSKVCMYFTYKVRYTNSSTEIPEFPIAPEIALELLMAANFLDC
For the molecule B1, the Kd in test [6] came to 119 nM; in test [7] it was 282 nM; in test [8], 61 nM.
